Columns and labels:
AncSZ = experiment: phosphorylation enrichment, bacterial display (enrichment ratio); higher = better substrate or ligand; peptides without Tyr show the background
EPHB1 = EPHB1 (UniProt P54762); experiment: as above
EPHB2 = EPHB2 (UniProt P29323); experiment: as above
FGFR1 = FGFR1 (UniProt P11362); experiment: as above
FGFR3 = FGFR3 (UniProt P22607); experiment: as above
Fer (mouse) = experiment: as above
Fes = Fes (UniProt P07332); experiment: as above
Fyn = Fyn (UniProt P06241); experiment: as above
Fyn, sequence (P06241 whole entry, looked up): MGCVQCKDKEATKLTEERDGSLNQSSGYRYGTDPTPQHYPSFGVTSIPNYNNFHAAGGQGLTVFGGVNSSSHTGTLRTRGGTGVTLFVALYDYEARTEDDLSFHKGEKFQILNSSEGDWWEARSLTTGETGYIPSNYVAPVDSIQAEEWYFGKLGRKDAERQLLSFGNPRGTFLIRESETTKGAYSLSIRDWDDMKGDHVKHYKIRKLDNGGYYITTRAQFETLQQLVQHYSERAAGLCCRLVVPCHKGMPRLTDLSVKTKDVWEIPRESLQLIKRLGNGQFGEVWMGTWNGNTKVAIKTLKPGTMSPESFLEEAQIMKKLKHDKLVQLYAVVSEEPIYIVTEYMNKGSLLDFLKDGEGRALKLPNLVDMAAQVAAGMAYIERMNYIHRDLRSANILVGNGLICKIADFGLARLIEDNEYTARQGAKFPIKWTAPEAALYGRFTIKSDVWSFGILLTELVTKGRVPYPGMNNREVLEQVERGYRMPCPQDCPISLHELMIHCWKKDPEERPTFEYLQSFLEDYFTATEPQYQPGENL

Hck = Hck (UniProt P08631); experiment: as above
Hck, sequence (P08631 whole entry, looked up): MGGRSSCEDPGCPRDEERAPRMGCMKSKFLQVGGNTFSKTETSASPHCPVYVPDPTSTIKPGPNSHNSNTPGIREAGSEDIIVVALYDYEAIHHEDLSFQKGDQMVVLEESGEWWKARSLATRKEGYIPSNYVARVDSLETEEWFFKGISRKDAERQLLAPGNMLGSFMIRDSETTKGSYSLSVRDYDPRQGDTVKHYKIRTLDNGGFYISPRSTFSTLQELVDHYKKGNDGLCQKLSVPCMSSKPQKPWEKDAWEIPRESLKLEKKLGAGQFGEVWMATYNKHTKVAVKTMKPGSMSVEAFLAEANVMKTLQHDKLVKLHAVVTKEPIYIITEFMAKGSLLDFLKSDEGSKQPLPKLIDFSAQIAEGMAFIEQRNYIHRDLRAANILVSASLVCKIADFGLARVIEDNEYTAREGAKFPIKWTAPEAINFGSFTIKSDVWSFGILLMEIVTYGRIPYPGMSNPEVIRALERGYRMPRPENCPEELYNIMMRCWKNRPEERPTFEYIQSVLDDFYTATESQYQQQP

Jak2 = Jak2 (UniProt O60674); experiment: as above
Jak2, sequence (O60674 whole entry, looked up): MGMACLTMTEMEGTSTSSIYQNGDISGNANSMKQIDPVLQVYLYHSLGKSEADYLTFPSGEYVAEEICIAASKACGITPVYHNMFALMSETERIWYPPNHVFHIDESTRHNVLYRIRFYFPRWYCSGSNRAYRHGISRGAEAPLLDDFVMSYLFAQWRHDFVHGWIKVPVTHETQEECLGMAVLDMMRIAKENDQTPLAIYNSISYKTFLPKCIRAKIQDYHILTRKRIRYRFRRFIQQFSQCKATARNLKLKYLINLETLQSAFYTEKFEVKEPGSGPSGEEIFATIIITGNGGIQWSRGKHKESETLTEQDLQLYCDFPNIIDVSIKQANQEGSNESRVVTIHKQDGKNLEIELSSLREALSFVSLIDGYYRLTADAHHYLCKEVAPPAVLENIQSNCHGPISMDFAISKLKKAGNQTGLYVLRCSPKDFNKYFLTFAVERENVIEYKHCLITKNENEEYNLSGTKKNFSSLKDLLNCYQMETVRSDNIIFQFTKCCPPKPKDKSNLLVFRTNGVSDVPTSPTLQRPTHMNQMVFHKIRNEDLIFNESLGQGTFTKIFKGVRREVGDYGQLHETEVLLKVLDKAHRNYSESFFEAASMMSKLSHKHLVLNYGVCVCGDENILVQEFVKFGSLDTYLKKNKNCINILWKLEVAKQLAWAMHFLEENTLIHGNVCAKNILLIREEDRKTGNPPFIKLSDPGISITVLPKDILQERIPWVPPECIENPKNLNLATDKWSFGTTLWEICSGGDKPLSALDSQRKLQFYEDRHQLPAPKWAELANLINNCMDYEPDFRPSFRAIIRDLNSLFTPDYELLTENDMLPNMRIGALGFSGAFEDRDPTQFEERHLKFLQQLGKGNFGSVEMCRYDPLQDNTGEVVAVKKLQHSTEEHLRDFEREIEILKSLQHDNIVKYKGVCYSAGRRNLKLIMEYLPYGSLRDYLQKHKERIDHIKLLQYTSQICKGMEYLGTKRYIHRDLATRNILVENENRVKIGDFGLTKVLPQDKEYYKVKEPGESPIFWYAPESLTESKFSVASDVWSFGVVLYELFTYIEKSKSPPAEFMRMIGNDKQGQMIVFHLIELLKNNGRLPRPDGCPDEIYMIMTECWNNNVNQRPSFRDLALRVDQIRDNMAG

MERTK = MERTK (UniProt Q12866); experiment: as above
c-Abl (mouse) = experiment: as above
c-Src = experiment: as above
Grb2 SH2 = Grb2 SH2 (UniProt P62993); experiment: SH2 binding enrichment of the phosphorylated peptide, bacterial display (enrichment ratio); higher = better substrate or ligand; peptides without Tyr show the background
SHP2-C SH2 = experiment: as above
c-Src SH2 = experiment: as above
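Wherever SH2 binding enrichment of the phosphorylated peptide, bacterial display is given: peptide library displayed on the E. coli surface as eCPX fusions, selected cells deep-sequenced, score is each peptide's frequency after selection divided by its frequency in the input.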
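Wherever phosphorylation enrichment, bacterial display is given: 11-residue human phosphosite peptides and single-mutation variants displayed on the E. coli surface, counted by deep sequencing, each peptide's frequency after selection divided by its frequency in the unselected input library; frequency after pTyr selection over input frequency; kinase dosed for 20-30% of maximal phosphorylation in three min.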

FGFR1, sequence (P11362 whole entry, looked up): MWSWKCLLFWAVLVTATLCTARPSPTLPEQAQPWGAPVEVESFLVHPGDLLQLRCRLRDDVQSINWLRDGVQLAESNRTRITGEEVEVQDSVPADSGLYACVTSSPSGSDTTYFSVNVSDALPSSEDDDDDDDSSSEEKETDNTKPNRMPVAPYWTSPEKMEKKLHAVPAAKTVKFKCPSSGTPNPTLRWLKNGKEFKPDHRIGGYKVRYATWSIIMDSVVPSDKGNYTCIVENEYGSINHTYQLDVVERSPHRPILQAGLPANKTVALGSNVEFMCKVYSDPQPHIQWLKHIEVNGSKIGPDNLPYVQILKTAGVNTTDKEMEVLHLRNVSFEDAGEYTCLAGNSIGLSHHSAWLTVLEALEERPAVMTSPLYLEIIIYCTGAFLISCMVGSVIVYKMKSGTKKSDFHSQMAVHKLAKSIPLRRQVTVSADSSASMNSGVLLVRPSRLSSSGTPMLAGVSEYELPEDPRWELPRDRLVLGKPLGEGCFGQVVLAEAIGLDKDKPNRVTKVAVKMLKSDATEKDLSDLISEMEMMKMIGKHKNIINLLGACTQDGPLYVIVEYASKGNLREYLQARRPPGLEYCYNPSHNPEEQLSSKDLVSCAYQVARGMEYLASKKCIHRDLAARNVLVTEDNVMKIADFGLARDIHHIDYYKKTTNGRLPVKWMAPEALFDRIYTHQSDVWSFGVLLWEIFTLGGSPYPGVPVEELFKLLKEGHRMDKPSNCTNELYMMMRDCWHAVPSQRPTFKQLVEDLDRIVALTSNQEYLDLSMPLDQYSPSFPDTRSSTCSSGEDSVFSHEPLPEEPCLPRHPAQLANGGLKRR
EPHB2, sequence (P29323 whole entry, looked up): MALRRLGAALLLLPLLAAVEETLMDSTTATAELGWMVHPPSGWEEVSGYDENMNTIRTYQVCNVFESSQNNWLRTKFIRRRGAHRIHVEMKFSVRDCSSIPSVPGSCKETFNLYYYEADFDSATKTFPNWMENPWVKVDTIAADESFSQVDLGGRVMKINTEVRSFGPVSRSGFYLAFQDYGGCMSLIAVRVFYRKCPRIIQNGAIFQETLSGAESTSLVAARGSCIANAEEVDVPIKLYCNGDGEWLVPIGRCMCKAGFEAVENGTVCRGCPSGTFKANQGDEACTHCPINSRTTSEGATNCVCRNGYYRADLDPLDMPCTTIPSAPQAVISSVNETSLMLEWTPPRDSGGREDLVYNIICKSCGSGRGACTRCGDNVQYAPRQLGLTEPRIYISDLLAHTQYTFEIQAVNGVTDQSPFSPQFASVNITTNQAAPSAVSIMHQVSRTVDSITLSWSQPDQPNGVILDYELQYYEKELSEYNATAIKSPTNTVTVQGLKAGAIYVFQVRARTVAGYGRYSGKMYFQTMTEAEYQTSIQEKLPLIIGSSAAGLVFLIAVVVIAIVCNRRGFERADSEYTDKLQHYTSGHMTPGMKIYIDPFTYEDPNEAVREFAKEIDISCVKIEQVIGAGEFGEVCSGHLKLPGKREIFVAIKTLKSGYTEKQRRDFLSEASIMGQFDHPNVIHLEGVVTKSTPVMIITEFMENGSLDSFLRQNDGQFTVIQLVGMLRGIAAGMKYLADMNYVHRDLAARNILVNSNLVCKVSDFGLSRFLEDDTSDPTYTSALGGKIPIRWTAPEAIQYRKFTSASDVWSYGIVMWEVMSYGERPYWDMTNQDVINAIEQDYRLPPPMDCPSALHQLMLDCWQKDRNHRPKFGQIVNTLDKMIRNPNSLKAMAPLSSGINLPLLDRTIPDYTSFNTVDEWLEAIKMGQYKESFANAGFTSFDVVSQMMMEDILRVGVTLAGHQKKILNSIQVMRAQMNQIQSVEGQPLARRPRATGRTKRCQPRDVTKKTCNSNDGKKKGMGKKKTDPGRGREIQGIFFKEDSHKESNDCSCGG
EPHB1, sequence (P54762 whole entry, looked up): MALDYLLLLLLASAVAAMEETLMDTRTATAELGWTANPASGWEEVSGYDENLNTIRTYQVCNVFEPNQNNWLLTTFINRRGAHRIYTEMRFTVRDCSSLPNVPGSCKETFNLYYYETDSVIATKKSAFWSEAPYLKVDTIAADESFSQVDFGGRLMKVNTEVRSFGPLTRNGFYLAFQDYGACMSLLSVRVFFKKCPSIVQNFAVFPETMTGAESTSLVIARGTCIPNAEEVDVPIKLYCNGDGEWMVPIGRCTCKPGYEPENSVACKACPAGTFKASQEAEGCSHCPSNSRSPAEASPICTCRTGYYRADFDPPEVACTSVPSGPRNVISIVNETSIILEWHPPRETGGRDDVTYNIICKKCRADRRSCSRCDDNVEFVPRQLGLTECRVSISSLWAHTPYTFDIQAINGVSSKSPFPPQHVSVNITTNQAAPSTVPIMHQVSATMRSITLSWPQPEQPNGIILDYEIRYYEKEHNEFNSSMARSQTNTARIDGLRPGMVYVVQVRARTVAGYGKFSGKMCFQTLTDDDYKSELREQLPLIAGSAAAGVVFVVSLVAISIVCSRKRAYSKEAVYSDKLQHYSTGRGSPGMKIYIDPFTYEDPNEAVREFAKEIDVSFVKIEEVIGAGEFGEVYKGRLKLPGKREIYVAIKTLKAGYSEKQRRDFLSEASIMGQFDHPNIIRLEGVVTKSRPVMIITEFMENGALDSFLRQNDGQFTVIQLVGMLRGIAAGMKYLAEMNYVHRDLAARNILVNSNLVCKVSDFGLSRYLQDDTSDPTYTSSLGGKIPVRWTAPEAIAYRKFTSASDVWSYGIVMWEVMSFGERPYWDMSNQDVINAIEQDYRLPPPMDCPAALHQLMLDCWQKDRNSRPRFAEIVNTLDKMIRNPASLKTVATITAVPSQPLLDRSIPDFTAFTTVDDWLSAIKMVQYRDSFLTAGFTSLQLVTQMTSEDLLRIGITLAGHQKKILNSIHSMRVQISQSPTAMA

| Sequence | SH2 binding enrichment (Grb2 SH2) | SH2 binding enrichment (SHP2-C SH2) | SH2 binding enrichment (c-Src SH2) | phosphorylation enrichment (AncSZ) | phosphorylation enrichment (EPHB1) | phosphorylation enrichment (EPHB2) | phosphorylation enrichment (FGFR1) | phosphorylation enrichment (FGFR3) | phosphorylation enrichment (Fer (mouse)) | phosphorylation enrichment (Fes) | phosphorylation enrichment (Fyn) | phosphorylation enrichment (Hck) | phosphorylation enrichment (Jak2) | phosphorylation enrichment (MERTK) | phosphorylation enrichment (c-Abl (mouse)) | phosphorylation enrichment (c-Src) |
| --- | --- | --- | --- | --- | --- | --- | --- | --- | --- | --- | --- | --- | --- | --- | --- | --- |
| MGGSLYFSYPD [HIKESHI_Y55_V54L] | 0.77 | 0.605 | 0.656 | 1.49 | 4.44 | 5.75 | 3.4 | 3.12 | 0.802 | 1.26 | 3.46 | 3.45 | 2.11 | 7.06 | 1.16 | 4.41 |
| PEFMVYKPQME [CCRL2_Y170_V168M] | 0.794 | 0.635 | 0.457 | 1.03 | 0.665 | 0.624 | 0.592 | 0.867 | 0.476 | 1.06 | 0.494 | 0.661 | 0.898 | 0.464 | 0.685 | 0.884 |
| PPSLSYLSFEG [EXOSC3_Y143_A139P] | 1.07 | 0.814 | 0.504 | 0.756 | 0.556 | 0.448 | 0.595 | 0.713 | 0.451 | 0.886 | 0.464 | 0.517 | 1.36 | 0.602 | 0.702 | 1.1 |
| IHETTHNSIMK [ACTA1_Y281_Y281H] | 0.736 | 0.537 | 0.43 | 0.452 | 0.304 | 0.349 | 0.425 | 0.39 | 0.347 | 0.469 | 0.43 | 0.463 | 0.471 | 0.38 | 0.401 | 0.262 |
| LFSLGYHQSRW [GANAB_Y396] | 1.15 | 0.828 | 0.717 | 1.04 | 0.647 | 0.724 | 0.567 | 1.02 | 0.584 | 1.16 | 0.726 | 0.855 | 0.767 | 0.649 | 0.638 | 0.454 |
| LTTEVYFPSIK [C5orf64_Y60_A57T] | 0.911 | 0.885 | 0.564 | 0.946 | 0.436 | 0.628 | 0.775 | 0.661 | 0.482 | 0.895 | 0.77 | 0.541 | 0.703 | 0.562 | 0.766 | 0.563 |
| EFKDAYKFAAD [BRDT_Y335_YF] | 0.7 | 0.779 | 0.459 | 0.647 | 0.367 | 0.491 | 0.414 | 0.524 | 0.408 | 0.731 | 0.414 | 0.429 | 0.638 | 0.492 | 0.459 | 0.447 |
| KPRKPYTIKKP [BRD2_Y715] | 1.85 | 1.73 | 1.9 | 1.28 | 1.03 | 0.765 | 0.864 | 2.2 | 1.19 | 1.94 | 0.608 | 0.924 | 2.95 | 0.644 | 1.98 | 0.75 |
| QSPQLYKQMCI [DARS1_Y253] | 0.904 | 0.904 | 0.638 | 0.881 | 0.836 | 0.559 | 0.461 | 0.573 | 0.673 | 0.896 | 0.796 | 0.634 | 0.917 | 0.603 | 0.932 | 0.485 |

Continued, in another order:

| SH2 binding enrichment (Grb2 SH2) | SH2 binding enrichment (SHP2-C SH2) | SH2 binding enrichment (c-Src SH2) | Sequence | phosphorylation enrichment (AncSZ) | phosphorylation enrichment (EPHB1) | phosphorylation enrichment (EPHB2) | phosphorylation enrichment (FGFR1) | phosphorylation enrichment (FGFR3) | phosphorylation enrichment (Fer (mouse)) | phosphorylation enrichment (Fes) | phosphorylation enrichment (Fyn) | phosphorylation enrichment (Hck) | phosphorylation enrichment (Jak2) | phosphorylation enrichment (MERTK) | phosphorylation enrichment (c-Abl (mouse)) | phosphorylation enrichment (c-Src) |
| --- | --- | --- | --- | --- | --- | --- | --- | --- | --- | --- | --- | --- | --- | --- | --- | --- |
| 1.05 | 0.823 | 0.63 | PESCFYKESWL [IQGAP2_Y630_L629F] | 1.51 | 0.772 | 0.671 | 0.707 | 1.31 | 0.973 | 1.57 | 0.616 | 0.555 | 0.941 | 0.538 | 0.766 | 0.516 |
| 0.907 | 0.707 | 0.514 | IRQDDYESLKE [MTR_Y921_H920D] | 1.32 | 0.633 | 0.553 | 0.5 | 0.608 | 0.463 | 1.15 | 0.455 | 0.571 | 1.13 | 0.474 | 1 | 0.533 |
| 1.05 | 0.856 | 1.36 | LLREWYVQDPY [SIX3_Y225_L226V] | 1.18 | 0.598 | 0.675 | 0.597 | 0.771 | 0.566 | 1.05 | 0.531 | 0.328 | 0.798 | 0.44 | 0.674 | 0.641 |
| 0.816 | 0.809 | 0.444 | PLYGEYFTLQI [TP53_Y327_D324Y] | 4.94 | 15.8 | 18.6 | 17.6 | 14.9 | 3.72 | 2.44 | 16.3 | 11.6 | 15.3 | 9.96 | 9.14 | 12.6 |
| 0.873 | 1.07 | 0.836 | GLSDPYVKIHL [SYT2_Y309] | 0.693 | 0.425 | 0.721 | 0.546 | 0.589 | 0.488 | 0.993 | 0.458 | 0.406 | 0.787 | 0.397 | 0.556 | 0.376 |
| 1.36 | 4.2 | 7.58 | CTTIHYNYVCN [TP53_Y234_M237V] | 0.904 | 0.616 | 0.645 | 0.685 | 0.648 | 0.696 | 0.949 | 0.556 | 0.514 | 0.828 | 0.498 | 0.595 | 0.455 |
| 1.04 | 0.86 | 0.784 | ATARPYRPYII [LRP5_Y1528] | 0.675 | 0.457 | 0.362 | 0.396 | 0.545 | 0.482 | 0.793 | 0.55 | 0.413 | 0.465 | 0.468 | 0.688 | 0.581 |
| 0.729 | 0.711 | 0.632 | CTTIHCNYMCN [TP53_Y234_Y234C] | 1.06 | 0.784 | 0.612 | 0.41 | 0.731 | 0.599 | 1.15 | 0.403 | 0.503 | 0.921 | 0.395 | 0.775 | 1.14 |
| 0.951 | 0.765 | 5.48 | IRQGHYESLKE [MTR_Y921_D919G] | 0.573 | 0.392 | 0.34 | 0.419 | 0.567 | 0.652 | 0.768 | 0.466 | 0.519 | 0.85 | 0.457 | 0.443 | 0.45 |
| 0.626 | 0.701 | 1.08 | TVVVPYEPPEV [TP53_Y220_S215T] | 1.08 | 0.548 | 0.439 | 0.528 | 0.62 | 0.512 | 1.16 | 0.475 | 0.458 | 1.35 | 0.549 | 0.89 | 0.537 |
| 1.38 | 0.946 | 0.784 | QTWKTYVRHQQ [SFI1_Y164_Q167H] | 0.901 | 0.548 | 0.509 | 0.535 | 2.21 | 0.465 | 1.29 | 0.476 | 0.486 | 1.3 | 0.49 | 1.36 | 0.769 |

— the supplement of paper PMC10065799, “High-throughput profiling of sequence recognition by tyrosine kinases and SH2 domains using bacterial peptide display” (eLife, 2023)
